Key:
HLA-A*02:01 = assay: IEDB peptide-MHC binding, purified MHC/competitive/fluorescence; filed as Kd, often an IC50 or EC50 that approximates it; ≥ and ≤ were set here for values at or beyond the usual limits of such assays; settings: source organism: Shigella flexneri 5 str. 8401
HLA-A*66:01 = assay: as above; settings: source organism: Shigella flexneri 5 str. 8401
HLA-B*27:03 [1] = assay: as above; settings: source organism: Shigella flexneri 5 str. 8401
HLA-B*44:02 = assay: as above
HLA-A*26:01 = assay: as above; settings: source organism: Shigella flexneri 5 str. 8401
HLA-B*14:02 [2] = assay: as above; settings: source organism: Shigella flexneri 5 str. 8401
HLA-A*29:02 [3] = assay: as above; settings: source organism: Shigella flexneri 5 str. 8401
HLA-B*46:01 [4] = assay: as above; settings: source organism: Shigella flexneri 5 str. 8401
HLA-A*02:03 = assay: as above; settings: source organism: Shigella flexneri 5 str. 8401
HLA-B*15:01 [5] = assay: as above; settings: source organism: Shigella flexneri 5 str. 8401
HLA-A*68:02 [6] = assay: as above; settings: source organism: Shigella flexneri 5 str. 8401
HLA-B*07:02 = assay: as above
HLA-A*30:02 = assay: as above
HLA-B*51:01 [7] = assay: as above; settings: source organism: Shigella flexneri 5 str. 8401
HLA-B*40:01 = assay: as above
HLA-B*53:01 = assay: as above
HLA-B*57:01 [8] = assay: as above; settings: source organism: Shigella flexneri 5 str. 8401
HLA-A*11:01 = assay: as above
HLA-A*02:19 = assay: as above; settings: source organism: Shigella flexneri 5 str. 8401
HLA-B*08:01 = assay: as above
HLA-A*30:01 = assay: as above; settings: source organism: Shigella flexneri 5 str. 8401
HLA-A*01:01 = assay: as above
HLA-B*58:01 = assay: as above
HLA-B*15:17 = assay: as above; settings: source organism: Shigella flexneri 5 str. 8401
HLA-A*03:01 = assay: as above; settings: source organism: Shigella flexneri 5 str. 8401
HLA-B*27:05 = assay: as above; settings: source organism: Shigella flexneri 5 str. 8401
HLA-B*18:01 [9] = assay: as above; settings: source organism: Shigella flexneri 5 str. 8401
HLA-B*83:01 = assay: as above; settings: source organism: Burkholderia mallei SAVP1
HLA-B*15:42 = assay: as above; settings: source organism: Burkholderia mallei SAVP1
HLA-B*45:06 = assay: as above; settings: source organism: Burkholderia mallei SAVP1
HLA-B*27:03 [10] = assay: IEDB peptide-MHC binding, purified MHC/direct/fluorescence; filed as Kd, often an IC50 or EC50 that approximates it; ≥ and ≤ were set here for values at or beyond the usual limits of such assays; settings: source organism: Burkholderia mallei ATCC 23344
HLA-B*14:02 [11] = assay: as above; settings: source organism: Burkholderia mallei ATCC 23344
HLA-A*29:02 [12] = assay: as above; settings: source organism: Burkholderia mallei ATCC 23344
HLA-B*46:01 [13] = assay: as above; settings: source organism: Burkholderia mallei ATCC 23344
HLA-B*39:01 = assay: as above; settings: source organism: Burkholderia mallei ATCC 23344
HLA-B*15:01 [14] = assay: as above; settings: source organism: Burkholderia mallei ATCC 23344
HLA-A*68:02 [15] = assay: as above; settings: source organism: Burkholderia mallei ATCC 23344
HLA-B*51:01 [16] = assay: as above; settings: source organism: Burkholderia mallei ATCC 23344
HLA-B*57:01 [17] = assay: as above; settings: source organism: Burkholderia mallei ATCC 23344
HLA-A*24:03 = assay: as above; settings: source organism: Burkholderia mallei ATCC 23344
HLA-B*18:01 [18] = assay: as above; settings: source organism: Burkholderia mallei ATCC 23344
[19] = source organism: Shigella flexneri 5 str. 8401
[20] = source organism: Burkholderia mallei SAVP1

## FGALFMWLL
HLA-A*02:01
  Kd: ≥ 20 µM
HLA-A*66:01
  Kd: ≥ 5 µM
HLA-B*27:03 [1]
  Kd: ≥ 20 µM
HLA-B*44:02; [19]
  Kd: ≥ 5 µM
HLA-A*26:01
  Kd: ≥ 20 µM
HLA-B*14:02 [2]
  Kd: ≥ 5 µM
HLA-A*29:02 [3]
  Kd: 0.138 µM
HLA-B*46:01 [4]
  Kd: ≥ 20 µM
HLA-A*02:03
  Kd: ≥ 20 µM
HLA-B*15:01 [5]
  Kd: ≥ 20 µM
HLA-A*68:02 [6]
  Kd: 0.741 µM
HLA-B*07:02; [19]
  Kd: ≥ 5 µM
HLA-A*30:02; [19]
  Kd: ≥ 5 µM
HLA-B*51:01 [7]
  Kd: ≥ 20 µM
HLA-B*40:01; [19]
  Kd: ≥ 5 µM
HLA-B*53:01; [19]
  Kd: ≥ 5 µM
HLA-B*57:01 [8]
  Kd: ≥ 20 µM
HLA-A*11:01; [19]
  Kd: ≥ 5 µM
HLA-A*02:19
  Kd: ≥ 20 µM
HLA-B*08:01; [19]
  Kd: ≥ 5 µM
HLA-A*30:01
  Kd: ≥ 5 µM
HLA-A*01:01; [19]
  Kd: ≥ 5 µM
HLA-B*58:01; [19]
  Kd: ≥ 5 µM
HLA-B*15:17
  Kd: ≥ 20 µM
HLA-A*03:01
  Kd: ≥ 20 µM
HLA-B*27:05
  Kd: ≥ 5 µM
HLA-B*18:01 [9]
  Kd: ≥ 20 µM

## MVFGRFSFA
HLA-B*44:02; [20]
  Kd: ≥ 5 µM
HLA-B*07:02; [20]
  Kd: ≥ 5 µM
HLA-A*30:02; [20]
  Kd: ≥ 20 µM
HLA-B*40:01; [20]
  Kd: ≥ 5 µM
HLA-B*53:01; [20]
  Kd: ≥ 5 µM
HLA-A*11:01; [20]
  Kd: 1.5 µM
HLA-B*83:01
  Kd: ≥ 5 µM
HLA-B*08:01; [20]
  Kd: ≥ 5 µM
HLA-B*15:42
  Kd: ≥ 5 µM
HLA-A*01:01; [20]
  Kd: ≥ 5 µM
HLA-B*58:01; [20]
  Kd: ≥ 5 µM
HLA-B*45:06
  Kd: ≥ 5 µM
HLA-B*27:03 [10]
  Kd: ≥ 20 µM
HLA-B*14:02 [11]
  Kd: 1.18 µM
HLA-A*29:02 [12]
  Kd: 0.192 µM
HLA-B*46:01 [13]
  Kd: ≥ 20 µM
HLA-B*39:01
  Kd: ≥ 20 µM
HLA-B*15:01 [14]
  Kd: ≥ 20 µM
HLA-A*68:02 [15]
  Kd: ≤ 0.001 µM
HLA-B*51:01 [16]
  Kd: ≥ 20 µM
HLA-B*57:01 [17]
  Kd: ≥ 20 µM
HLA-A*24:03
  Kd: ≥ 20 µM
HLA-B*18:01 [18]
  Kd: ≥ 20 µM
